# Measured values reported in the supplement of paper PMC7125110.
# ± gives the standard error. For some assays here: This sample holds only a part of the variants without activity.
# B1: glmS ribozyme (parent)
# chain: AUAAAAGCGCCAGAACUACAGAAAUGUAGUUGACGAGGAGGAGGUUUAUCGAAUUUUCGGCGGAUGCCUCCAAA
# Legend:
# Settings in all cases: with glucosamine-6-phosphate
# [1] = variants of: B1; test: kcat; higher = faster cleavage; RNA array
# How it was run: (§1)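 Barcoded ribozyme variants were transcribed in situ on sequenced MiSeq chips by E. coli RNA polymerase. At 37 °C, a hybridised Cy3 probe tracked them while glucosamine-6-phosphate (40 μM to 10 mM) in HEPES/KCl/Mg(OAc)2 buffer flowed in and tiles were imaged over ~14 h. Per-tile medians of signals normalised to baseline and to non-cleaving reference variants were fit to one- or two-exponential decays, giving kobs. kcat and KM came from weighted Michaelis–Menten fits across concentrations.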
# [2] = variants of: B1; test: KM; higher = weaker cofactor use; RNA array
# How it was run: as §1
# [3] = variants of: B1; test: self-cleavage kobs at 640 uM GlcN6P; higher = faster cleavage; RNA array
# How it was run: as §1
# [4] = variants of: B1; test: self-cleavage kobs at 2500 uM GlcN6P; higher = faster cleavage; RNA array
# How it was run: as §1
# [5] = variants of: B1; test: self-cleavage kobs at 10000 uM GlcN6P; higher = faster cleavage; RNA array
# How it was run: as §1
# [6] = variants of: B1; test: self-cleavage kobs at 40 uM GlcN6P; higher = faster cleavage; RNA array
# How it was run: as §1
# [7] = variants of: B1; test: self-cleavage kobs at 160 uM GlcN6P; higher = faster cleavage; RNA array
# How it was run: as §1
Variant,kcat [1] [s⁻¹],KM [2] [µM],self-cleavage kobs at 640 uM GlcN6P [3] [s⁻¹],self-cleavage kobs at 2500 uM GlcN6P [4] [s⁻¹],self-cleavage kobs at 10000 uM GlcN6P [5] [s⁻¹],self-cleavage kobs at 40 uM GlcN6P [6] [s⁻¹],self-cleavage kobs at 160 uM GlcN6P [7] [s⁻¹]
G44C A53G,0.000232 ± 7.9e-06,3060 ± 220,3.96e-05 ± 1.4e-05,0.000105 ± 1.9e-05,0.000177 ± 3e-05,,
G43C C68G,0.0157 ± 0.0024,265 ± 63,0.0109 ± 0.0018,0.0139 ± 0.0031,,0.00205 ± 0.00027,0.00622 ± 0.0014
G44A U46G,0.000265 ± 5.2e-05,,0.000114 ± 2.6e-05,0.000213 ± 4.4e-05,0.000221 ± 4.7e-05,,
A42U C71U,0.000154 ± 2e-05,1320 ± 400,4.75e-05 ± 6.4e-06,0.000122 ± 1.6e-05,0.000129 ± 1.4e-05,< 1e-05,
U46C U69C,0.00112 ± 0.0002,644 ± 250,0.000644 ± 0.00013,0.00117 ± 0.00032,0.000936 ± 0.00019,5.23e-05 ± 2.2e-05,
U45G C71U,0.00857 ± 0.0011,2380 ± 450,0.00152 ± 0.00031,0.00519 ± 0.00062,0.00653 ± 0.0008,0.000147 ± 1.7e-05,0.000517 ± 8.8e-05
U45A U46G,0.0594 ± 0.012,939 ± 230,0.0264 ± 0.006,0.0366 ± 0.012,0.0669 ± 0.021,0.00256 ± 0.00026,0.00762 ± 0.0012
U46A C67U,0.00326 ± 0.0007,2370 ± 780,0.000811 ± 0.00012,0.00173 ± 0.00027,0.00257 ± 0.00033,9.11e-05 ± 2.1e-05,0.000165 ± 2.9e-05
U46G C70A,0.000224 ± 6.8e-05,,0.000153 ± 2.5e-05,0.000395 ± 7.2e-05,0.000188 ± 3.1e-05,4.78e-05 ± 1.2e-05,4.54e-05 ± 1.6e-05
G43A C67U,0.000171 ± 1.4e-05,1110 ± 320,6.14e-05 ± 9.1e-06,0.000189 ± 4.2e-05,0.000152 ± 9.9e-06,,
U46C U57C,9.95e-05 ± 2e-05,,,4.88e-05 ± 2e-05,7.09e-05 ± 1.8e-05,< 1e-05,
G44U U45G,0.0224 ± 0.0018,3420 ± 360,0.0033 ± 0.00046,0.00801 ± 0.0035,0.017 ± 0.0022,0.000269 ± 4.1e-05,0.00106 ± 0.00018
U46C C58A,0.000527 ± 0.00012,,2.77e-05 ± 9.7e-06,7.47e-05 ± 1.3e-05,0.00022 ± 3.4e-05,,
U46C C58U,3.35e-05 ± 5.4e-07,1400 ± 110,,,2.93e-05 ± 9e-06,< 1e-05,
G44U U54A,0.000233 ± 6.1e-05,,0.000111 ± 3.6e-05,0.000132 ± 4.1e-05,0.000252 ± 6.1e-05,,
G43U U55A,2.33e-05 ± 3.8e-07,1170 ± 67,,,,,< 1e-05
G43U U54A U55A C67G C68U,0.000164 ± 6.5e-05,,,,7.92e-05 ± 2.1e-05,,
U46A C61U,< 1e-05,,< 1e-05,< 1e-05,,,< 1e-05
G44U U65G,0.000347 ± 2.4e-05,,,5.71e-05 ± 1.8e-05,0.000152 ± 2.6e-05,,
U46A A53G,0.00162 ± 0.00057,,0.000508 ± 8.1e-05,0.00104 ± 0.00016,0.00261 ± 0.00051,8.49e-05 ± 1.5e-05,0.000201 ± 3.7e-05
U46A C71A,0.00108 ± 0.00054,,0.000259 ± 5.1e-05,0.000566 ± 0.00015,0.000724 ± 0.00023,,
U46C A53U,0.00168 ± 0.00018,1640 ± 260,0.000471 ± 9.9e-05,0.0012 ± 0.00023,0.00133 ± 0.00028,3.88e-05 ± 1.2e-05,0.000145 ± 3.3e-05
U46C A53G,0.00366 ± 0.0005,1430 ± 280,0.00119 ± 0.00015,0.0025 ± 0.00035,0.00272 ± 0.00067,8.69e-05 ± 1.5e-05,0.000402 ± 6.7e-05
U45C C71U,0.00401 ± 0.00038,2470 ± 340,0.000828 ± 0.00012,0.00167 ± 0.00031,0.00338 ± 0.00033,6.69e-05 ± 7.5e-06,0.000236 ± 5.8e-05
U45C C71A,0.00125 ± 0.00022,4720 ± 1500,0.00014 ± 3.9e-05,0.000744 ± 0.00031,0.000832 ± 0.00015,,
U46G G66A,0.00746 ± 0.0016,2580 ± 720,0.00155 ± 0.00019,0.00502 ± 0.0011,0.00541 ± 0.001,0.000106 ± 1.6e-05,
U45C U46G,0.00122 ± 0.00043,2110 ± 1100,0.000322 ± 8.8e-05,0.000911 ± 0.00015,0.000685 ± 0.00025,,7.78e-05 ± 1.5e-05
G44A U45G,0.00378 ± 0.00039,1850 ± 280,0.000889 ± 0.00016,0.00218 ± 0.00031,0.0033 ± 0.0007,9.22e-05 ± 1.8e-05,0.000285 ± 6.4e-05
